The subject of the data set is MS2 coat protein. Briefly: apparent KD of MS2 coat protein; higher = weaker reporter binding. The settings on record: Eterna round: R107. In a few lines:
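For every design, apparent KD is the median of normalised binding-curve fits from its clusters. The RNA switches were transcribed on-chip from Illumina sequencing clusters and titrated with SNAP-549-labelled MS2 coat protein (twofold steps, 0.7 or 1.5 nM to 3 µM; 0.8–1.5 h to 10–20 min per step). Titrations used 100 mM Tris-HCl pH 7.5, 80 mM KCl, 4 mM MgCl2, without or with constant ligand.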

Setting [1] is: input ligand: theophylline 20 uM.
[2] abbreviates: input ligand: theophylline 2 mM.
The mark [3] stands for this setting: input ligand: tryptophan 2.4 mM.

The values that follow come from the supplement of paper PMC9170038.

Regarding “GUUGGACUUUCGGCCGCCACUGAGAGAGUCGUGUGAACAUGAGGAUCACCCAUGUAAUAUAUAUACAGGACCGGGAGGGUUGUAA [4.N]”, the “apparent KD of MS2 coat protein” value was 8.94 nM (input ligand: arginine 13.2 mM); 11.3 nM (input ligand: none); 22.2 nM under setting [1]; 19.7 nM under setting [2]; 11.3 nM under setting [3].
For the sequence “GUUUAAAGGUCGGCCGCCACUGUAGGAUGUGUUCUUUCACAUGAGGAUCACCCAUGUUGUUAUUAUAGGACCGGGAUUGUAGGAC [39MS split4]”, the “apparent KD of MS2 coat protein” value was 22.6 nM (input ligand: arginine 13.2 mM); 41.4 nM (input ligand: none); 42.3 nM under setting [1]; 35.5 nM under setting [2]; 31.7 nM under setting [3].
Regarding “GUUUUAUACUCGGCCGCCACUGAGAGAGUCAUGUAAACAUGAGGAUCACCCAUGUAAUAUAUAUACAGGACCGGGAGUAGGGUAA [4.F]”, the “apparent KD of MS2 coat protein” value by setting is: (input ligand: arginine 13.2 mM) 10.1 nM; under setting [1], 16.1 nM; under setting [2], 12.2 nM.
In the same order, the values of “UAAAACAUGAGGAUCACCCAUGUAUUGAGUCGAGGACCGGUACGGCCGCCACUCGGCAAUAAUAACGACGCAUAGCAUGUAGGAA [theeternabot_sameState_MS2_Trp_A_41]” are 12.8 nM, 19.5 nM and 14.9 nM.
For “UAAAACAUGAGGAUCACCCAUGUAUUUGAUACCAGAGUGAUGAUCCUCCCUUGGCAGCAAAUAACGCAUUGAUUACAAUGCGAAA [Mat - Same State Theophlline A - Mod of Eli - D28]”, the “apparent KD of MS2 coat protein” value reads like this: (input ligand: arginine 13.2 mM) 34.8 nM; under setting [1], 121 nM; under setting [3], 36 nM.
Turning to “UAAAAUAUCUGGGUGUAGGUAAUAACAGAUACCAGCCAGAUAACUGGCCCUUGGCAGCUGAAAACAUGAGGAUCACCCAUGUAAA [TheoAS 22 #OpenEnded #Ms2Late]”, the “apparent KD of MS2 coat protein” value amounted to 28.1 nM (input ligand: arginine 13.2 mM); 30.7 nM (input ligand: none); 50.3 nM under setting [1]; 236 nM under setting [2]; 28.6 nM under setting [3].
As for “UAAACUACACAUGAGGAUCACCCAUGUGGCCGAGGACCGGUACGGCCGCCACUCGUGUGUUAAUAAAAGAACCGCAAAGUUCUGU [Ticerear]”, the “apparent KD of MS2 coat protein” value runs as follows: (input ligand: arginine 13.2 mM) 49.8 nM; under setting [1], 401 nM; under setting [2], 452 nM.
For the sequence “UAACAUGAGGAUCACCCAUGUAUAGUCGAUACCAGCUCUGUCUAGAGCCCUUGGCAGCGACACUGGUAUCCAUGGGUGUGGAUAC [(Ms2)-(Theo)-(T)'-(M)'-(M)'']”, the “apparent KD of MS2 coat protein” value was 20.1 nM (input ligand: arginine 13.2 mM), 98.4 nM under setting [1] and 103 nM under setting [3].
For “UAACAUGAGGAUCACCCAUGUUUGAAGAAACGAGGACCGGUACGGCCGCCACUCGACGAGUGGAUGAAUAGUGGGCUUGUGUGCU [Same State Trp A GF10]”, the “apparent KD of MS2 coat protein” value by setting is: (input ligand: arginine 13.2 mM) 11 nM; under setting [1], 16 nM; under setting [2], 13.1 nM.
Take “UAAUAAAUAAGUGAUACCAGCGAGAAAACAUGAGGAUCACCCAUGUUCGCCCAUGUUAAGCGCCCUUGGCAGCACAAAUAUAAAA [AstrosExyTheB#1]”: the “apparent KD of MS2 coat protein” value by setting is: (input ligand: arginine 13.2 mM) 25.6 nM; under setting [1], 42.7 nM; under setting [3], 33.6 nM.
On to “UAAUAAGUACCGGUCCUCAGAUCCUCAUGACGAGGACCGGUACGGCCGCCACUCGAAACAUGAGGAUCACCCAUGUAAUAAUAAU [|T'-M'-Trp-Ms2|_Design 1]”, for which the “apparent KD of MS2 coat protein” value by setting is: (input ligand: arginine 13.2 mM) 17.9 nM; (input ligand: none) 22.2 nM; under setting [1], 29.4 nM; under setting [2], 36.9 nM; under setting [3], 18.3 nM.
As to “UAAUACCAGGUCAACGUACCAGGUGAUCAACGAGGACCGGUACGGCCGCCACUCGAAACAUGAGGAUCACCCAUGUAAGACCUGG [|T'-M'-Trp-Ms2|_Design 2_ML2]”, the “apparent KD of MS2 coat protein” value by setting is: (input ligand: arginine 13.2 mM) 20.9 nM; (input ligand: none) 134 nM; under setting [1], 185 nM; under setting [2], 141 nM; under setting [3], 61.3 nM.
Regarding “UAAUCCGGUCCUCGAUAAUCCUCAUGUAAACGAGGACCGGUACGGCCGCCACUCGAUAACAUGAGGAUCACCCAUGUAAUAAUAA [|T'-M'-Trp-Ms2|_Design14]”, the “apparent KD of MS2 coat protein” value (input ligand: arginine 13.2 mM) came to 47.5 nM, the “apparent KD of MS2 coat protein” value under setting [1] was found to be 88.3 nM and the “apparent KD of MS2 coat protein” value under setting [2] turned out to be 82.2 nM.
With “UACAUAUGCCGAAGGAGCGCGAGAUGCAAAGCAUCAAUCCUUACAUGAGGAUCACCCAUGUCGCAGGUAGGUCGCGGCAUAUGUU [ArgBX 2]”, the “apparent KD of MS2 coat protein” value (input ligand: arginine 13.2 mM) was determined as 26.8 nM; the “apparent KD of MS2 coat protein” value (input ligand: none) was determined as 33.6 nM; the “apparent KD of MS2 coat protein” value under setting [1] stood at 44.3 nM; the “apparent KD of MS2 coat protein” value under setting [2] is 44.7 nM; the “apparent KD of MS2 coat protein” value under setting [3] stood at 36.1 nM.
Turning to “UACAUGAGGAUCACCCAUGUAUGAAUGGAUACCAGCGACAAUGGGCGCCCUUGGCAGCUAGUGGAUGAAGGGUGGGUACAAUACU [Exclusion Theophyline A GF4]”, the “apparent KD of MS2 coat protein” value was 11.4 nM (input ligand: arginine 13.2 mM); 13.4 nM (input ligand: none); 17.7 nM under setting [1]; 13.1 nM under setting [2]; 11.4 nM under setting [3].
Turning to “UACAUGAGGAUCACCCAUGUCCCAUGUGAACGAGGACCGGUACGGCCGCCACUCGAAUAAGGCGGCACAUGAGGAUCACCCACAU [AstrosSSTry#2]”, the “apparent KD of MS2 coat protein” value is, setting by setting: (input ligand: arginine 13.2 mM) 283 nM; under setting [1], 352 nM; under setting [2], 399 nM.
Take “UACCCAUAGGGAAGGAGCGCGCUAACAUGAGGAUCACCCAUGUAAAGGGUUUCUGGCUUAGCGCAGGUAGGUCGCCCUAUGGGUA [#10 Exclusion - Arginine B]”: the “apparent KD of MS2 coat protein” value (input ligand: arginine 13.2 mM) is 196 nM; the “apparent KD of MS2 coat protein” value (input ligand: none) was 238 nM; the “apparent KD of MS2 coat protein” value under setting [1] turned out to be 400 nM; the “apparent KD of MS2 coat protein” value under setting [2] came to 1050 nM; the “apparent KD of MS2 coat protein” value under setting [3] came to 654 nM.
The like results for “UACCGAUGAAGAAGGAGCGUACGUGGUUCACAUGAGGAUCACCCAUGUGCUUAUUGCUAGGUACAGGUAGGUCGCUUCAUCGGUA [SSAB NP+V+V2 #21]” were, in that order, 16.5 nM, 15.5 nM, 21 nM, 17.1 nM and 15.8 nM.
In the same order, the values of “UACCGAUGAAGAAGGAGCGUGCGUGGUUCACAUGAGGAUCACCCAUGUGCUUUAUACUAGGCACAGGUAGGUCGCUUCAUCGGUA [SSAB NP+V+V2 #22]” are 24.3 nM, 19.4 nM, 30.7 nM, 27.8 nM and 23.3 nM.
Regarding “UACGUGGAUGCGGCCGCCACUGCUCUGAGCGAGUUGCUCUAUGGACAUGAGGAUCACCCAUGUCACAGGACCGGGCACGCUUUAA [theeternabot_sameState_MS2_Trp_B_50]”, the “apparent KD of MS2 coat protein” value by setting is: (input ligand: arginine 13.2 mM) 9.14 nM; under setting [1], 11.9 nM; under setting [2], 10.6 nM.
In the same order, the values of “UACUUGCUGACGGCCGCCACUAGUACAUGAGGAUCACCCAUGUACGGUCGCCCGGUGUGAUCCACUAGGACCGGGUCAGCAAGAU [(Trp1)-(Ms2)-(T)'-(M)'-(Trp2)_Design24]” are 38.4 nM, 42.9 nM and 48.5 nM.
“UAGAUAGAGGGAAGGAGCGCGAUAACAUAACAUGAGGAUCACCCAUGUAAGAAAUUAAUAAUGCAGGUAGGUCGCCCAAGAUGAU [Same State Arginine B gf1]”: the “apparent KD of MS2 coat protein” value (input ligand: arginine 13.2 mM) was found to be 8.76 nM; the “apparent KD of MS2 coat protein” value (input ligand: none) worked out at 14.5 nM; the “apparent KD of MS2 coat protein” value under setting [1] stood at 15.1 nM; the “apparent KD of MS2 coat protein” value under setting [2] came to 19 nM; the “apparent KD of MS2 coat protein” value under setting [3] amounted to 17.1 nM.
As to “UAUACAUGGUAUAAAUAUAUAUAUAAGAAACGAGGACCGGUACGGCCGCCACUCGUGCCGGAAACAUGAGGAUCACCCAUGUAUU [AK1 Exclusion TrypA mod IceBolt]”, the “apparent KD of MS2 coat protein” value runs as follows: (input ligand: arginine 13.2 mM) 21 nM; under setting [1], 39.3 nM; under setting [2], 49.6 nM.
As to “UAUAUAGAUGGAAGUCAUAUAGAUGCAGAAGGAGCGUAGGAAACUACAGGUAGGUCGCUGAGGUACAUGAGGAUCACCCAUGUAG [SSArg A #18 Slice of Pi]”, the “apparent KD of MS2 coat protein” value worked out at 20.8 nM (input ligand: arginine 13.2 mM); 27.3 nM (input ligand: none); 34.1 nM under setting [1]; 25.3 nM under setting [2]; 24.2 nM under setting [3].
“UAUAUAUAUCACGAACUGUGGUGUAUGUCUCGAGGACCGGUACGGCCGCCACUCGCGCGGCCUCACAUGAGGAUCACCCAUGUCC [XTryp A #5]”: the “apparent KD of MS2 coat protein” value reads like this: (input ligand: arginine 13.2 mM) 66.9 nM; under setting [1], 132 nM; under setting [2], 107 nM.
Turning to “UAUCCACAUGAGGAUCACCCAUGUGAGGAAGGAGCGGUGAAUGCACCAGGUAGGUCGCCUUGCUGAGGACAGCCGGUGGAUUCGU [Exclusion - Arginine A (Freestyle 25)]”, the “apparent KD of MS2 coat protein” value (input ligand: arginine 13.2 mM) turned out to be 13.5 nM; the “apparent KD of MS2 coat protein” value (input ligand: none) came to 12.4 nM; the “apparent KD of MS2 coat protein” value under setting [1] worked out at 16.2 nM; the “apparent KD of MS2 coat protein” value under setting [2] is 15.8 nM; the “apparent KD of MS2 coat protein” value under setting [3] was 18.3 nM.
The like results for “UCACAUGAGGAUCACCCAUGUAUAGUUGAAGGAGCGAUCAGGAGGUCAGGUAGGUCGCAGCACAUGAGGAUCACCCAUGUAUCGA [DOUBLE!!! :-D #4]” were, in that order, 34 nM, 85.2 nM, 72.7 nM, 50.4 nM and 59.5 nM.
